Results taken from patent US20070122903A1, “AMNIOTIC FLUID DERIVED CELLS” (priority 2005, published 2007).

System: cell line AFCA007 Clone A (AF-I)
Assay: Differentiation of cells into multiple endocrine lineages (collagen type I/matrigel transwell culture with growth factors)
Assay type: cell-based, human
Conditions: 14 days; for expression of HNF-3 beta: DMEM + 5% FBS
Procedure: Cells from the cell line AFCA007 Clone A (AF-I) at passage 8 were embedded in collagen type I (Becton Dickinson, CA) with 1% growth-factor reduced matrigel matrix (Becton Dickinson), and seeded into 6-well transwell insert at 5×10^5 cells per well. The bottom well was seeded with human aortic endothelial cells passage 6 (Cambrex. MD). Cells were cultured with DMEM medium supplemented with 5% FBS and growth factors, which includes Cyclopamine, bFGF, EGF, BMP4-7, Activin A, Exendin 4, FGF4, all-trans retinoic acid and γ-secretase inhibitors for 14 days. Cultures were fed every other day. […] Treatment of cells with BMPs at high concentration, 50 ng/ml, also up-regualted the GATA4 expression.

Molecule | expression of HNF-3 beta | PDX-1 expression (50 ng/ml)
Activin A: growth factor added to the differentiation medium (protein, UniProt P08476 311-426, looked up, Inhibin beta A chain, growth factor added to the differentiation medium) Inhibin beta A chain: GLECDGKVNICCKKQFFVSFKDIGWNDWIIAPSGYHANYCEGECPSHIAGTSGSSLSFHSTVINHYRMRGHSPFANLKSCCVPTKLRPMSMLYYDDGQNIIKKDIQNMIVEECGCS | up-regulated | 
FGF4: growth factor added to the differentiation medium (protein, UniProt P08620 31-206, looked up) Fibroblast growth factor 4: APTAPNGTLEAELERRWESLVALSLARLPVAAQPKEAAVQSGAGDYLLGIKRLRRLYCNVGIGFHLQALPDGRIGGAHADTRDSLLELSPVERGVVSIFGVASRFFVAMSSKGKLYGSPFFTDECTFKEILLPNNYNAYESYKYPGMFIALSKNGKTKKGNRVSPTMKVTHFLPRL |  | up-regulation
BMP4: bone morphogenic protein, growth factor added to the differentiation medium (protein, UniProt P12644 293-408, looked up) Bone morphogenetic protein 4: SPKHHSQRARKKNKNCRRHSLYVDFSDVGWNDWIVAPPGYQAFYCHGDCPFPLADHLNSTNHAIVQTLVNSVNSSIPKACCVPTELSAISMLYLDEYDKVVLKNYQEMVVEGCGCR | up-regulated | 
